Data from the nanobody polyreactivity screen of Harvey et al. (2022).

experiment: yeast display, Sf9 membrane polyspecificity reagent, FACS + sequencing; frameworks hold sequencing errors
Method in brief: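 Galactose induction of a Saccharomyces cerevisiae BJ5465 synthetic nanobody display library ran 36–48 hours. The cells were then stained for 1 hour at 4 °C with 10% biotinylated, detergent-solubilized Sf9 membrane reagent, pulled down on streptavidin microbeads and FACS-sorted into low and high (top ~1%) gates on expression and reagent-binding fluorescence. Labels for polyreactivity follow the gate of origin.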

Sequence	polyreactivity (PSR sort gate)
QVQLVESGGGLVQAGGSLRLSCAASGSNSFLYTMRWYRQAPGKERELVAAITGSTASTYYADSVKGRFTISRDNAKNTVYLQMNSLKPEDSAVYYWAAYWYAEGYWVSRDYWGQGTQVTVSS	low polyreactivity
QVQLVESGGGLVQAGGSLRLSCAASGRTFKGNAMGWYRPAPGKERELVAVITGSGGSTYYADSVKGRFTISRDNAKNTVYLQMHSLKPEDTAVYYCAKQVRSYVRWEYDYWGQGTQGTVSS	low polyreactivity
QVHLVESGGGLVQAGGSLRLSFAASGYTLSDNAMGWYRQAPGKERELVATIDFGGGSTYYADSVKGRFTISRDNAKNTVYLQRNSLKPEDTAVYYCNTEWTSLSTSSLGGRYDHWGQGTQVTVSS	low polyreactivity
QVQLVESVGGLDQAGVSLRLSCPASVRTLSKNSMGWYRQAPGKARELVATISSVGRTNYAVSVKGRFTISRDNAKNTVYLQMKSLKREDTAVYYCDARRFRGSYYWGLGTQVTVSS	high polyreactivity
QVQLVESGGGLVQAGGSLRLSCAASGSTFHYYAMGWYRQAPGKERELVAAINSGARTYYADSVKGRFTISRDNAKNTVYLQMNSLKTEDTAVYYCNKAFQWSGGQVSYDYWGQGTQVTVSS	low polyreactivity
QVQLVESVAGLVQAGGSLRLSCAASGSTFTGNAMGWYRQAPRKERELVAAITKGGSRTYYADSVKGRFTISRDNAKNTVYLQMNSLKPEDTAVYYCAAIERYSYLLYPKFDYWGQGTQVTVSS	high polyreactivity
QFQLVESGGGLVQAGGSLRLSCAASGRIFYYYAMGWYRQAPGKERELVAAITRGGSTYADSVKGRFTISRDNAKNTVYLQMNSLKPEDTAVYYCAATYWYWDFRWMDYWGQGTQVTVSS	high polyreactivity
QVQLVESGGGLVQAGGSLRLSCAASGFIFYKNAMGWYRQAPGKERELVAAISSRGGSTSYADSVKGLFTISRDNAKNTVYLQMNSLKQEDTAVYYCAAYPDYSYFYWGQGTQVTVSS	high polyreactivity
QVQLVESGGGLFQAGGSLRLSCAASGSIFWSYAMGWYRQAPGKERELVAAISSGGSTNYADSVKGRFTISRDNAKNTVYLQMNSLKPEDTAVYYCNAVGAKGYVKGFDYWGQGTQVTVSS	low polyreactivity
QVQLVESGGGLVQAGGSLRLSCAASGSTFGHYAMGWSRQAPGKERELVAVISRSGARTYYADSVKGRFTISRDNAKNTVYLQMNSLKPEDTAVYYCATTYATNYDYWGQGTQVTVSS	high polyreactivity
QVQLVDSGGGLVQAGGSLRLSWAASGSTLYVNAIGFYRQAPGKERELVSAISWSGGSTNYADSVKGRFTISRDNAKNTVYLQMNSQKPEDTSVYYCAVYYRRWFSRYDYWGQGTQVTVSS	low polyreactivity
QVQLVESGGGLVQAGGSLRLSCAASGRTFQYNAMGWYRQAPGKERELVAAISSSGGSTYYADSVKGRFTISRDNAKNTVYLQMNSLKPEDTAVYYCNAYSQSWNFYGDGDYWGQGTQVTVSS	low polyreactivity
QVQLVESGAGLVQAGGSLRLSCAASGSIFAWYGMGWYRQAPGQERELVAAISTAGSTNYADSVKGRFTISRDNAKNTVYLQMNSLKPEDTAVYYCAKISSWYYPERFDYWGQGTQVTVSS	low polyreactivity
QVQLVESVGGLVQAGGTLRLSCAATEGTIRSNAMGWYRQAPGKESELVAAISRGGSTYYADSVKGRFTISRDNAKNTVYLQMNSLKPEDTAVYYCNVAYYRSGHDNDYWGQGTQVTVSS	high polyreactivity
QVQLVESGGGLVQAGGSLRLSCAASGRTSGRYALGWYRQAPGKERELVAAITSSGGSTYYADSVKGRFTISRDTAKNTVYLQMNSLKPEDTAVYYCAAYFRGTGLDRSYKYDYWGQGTQVTVSS	high polyreactivity
QVQLVESGGGLVQAGGSLRLSCAASGFTFAYHAMGWYRQAPGKERELVAGINSSGDGTYYADSVKGRFTISRDNAKNTVYLQMNSLKQEDTAVYYCAADYTGFYQDGSYVDYDYWGQGTQVTVSS	low polyreactivity
QVQLVETGGGLVQAGGSLRLSCAASGSIFSGNAMGRSRPAPGKERELVGAITGSGGSTYYADSVKGRFTITRDNAKNTVYLQMNSLKPVDTAVYYCAVLFRTFYYWGQGTQVTVSS	high polyreactivity
QVQLVESGGGLVQAGGRLRLSCAASGSTFFKYDMGWYRQAPGKERELVAVITWSGGTTFYADSVKGRFTISRDNAKNTVYLQMNSLKPEDTAVYYCAADYYGYRYDYWGQGTQVTVSS	low polyreactivity
QVQLVESGGGLVQAGGSLRLSCDASGSIFMYNAMGWYRQAPGKERELVAAISSSSDRTYYADSVKGRFTISRDNAKKTVYLQMNSLKPEDTAVYYCNVVYIGWRKYEYWGQGTQVTVSS	high polyreactivity
QVQLQESGGGLVQAGGSPRLSCAASGTITRQYYMGWYRQAPGKERGFVAGIKSGSTTYYADNVKGCFTISRDNAKNAAYLQMNSLKPEDTAVYYCAIRPSYTIPYWYWGQGTQVTVSS	high polyreactivity
QVQLVESGGGLVQAGGSLRLSCAASGRILYSYAMGWYRQEPGKERELVAAISSTGSTYYADSVKGRFTISRDNAKNTVYLQMISLKPEDTAVYYCAATFYPYQVHHYYYWGQGTQVTVSS	low polyreactivity
QVQHVESGGALVQAGGILRLSCAASGYTFYVYAMGWYRQAPGKERELVAAISGGSNTYYADSVKGRFTISRDNGKNTVYLQMNSLKPEDTAVYYCAKSSTTYRQRARYDYWGQGTQVTVSS	high polyreactivity

Sequence	polyreactivity (PSR sort gate)
QVQLEESGGGLVQAGGSLRLSCAASGNIFESYGMGWYRQAPGKERELVATINTSSGSTYYADSVKGRFTISRDNAKNTVYLQMNSLKPEDTAVYYCAAEWYPYPWGYGYWGQGTQVTVSS	low polyreactivity
QVQLVESGGGLVQAGGSLRLSFAASGYTFSPYAMGWYRQAPGKERELVAVISSSASTYYADSVKGRFTISRDNAKITVYLQMNSLKPEDTAVYYCAAQPAHPRRYDYWGQGTQVTVSS	high polyreactivity
QLQLQESGGGLVQAGGSLRLSCAASALITKVYSMGWYRQAPGKERELVAVINSNGGSTYYADSVKGRFTISRDNAQNTVYLQMNSLKPEDTAVYYCRYFRPYGYNYWGQGTQVTVSS	high polyreactivity
QVQLVESGGGLVQAGGSLRLSCAASGFILSRYAMGWYRPAPGTERELVAAITSSGGSTYYADSVKGRFTISRDNAKNTVYLQMNSLKPEDTAVYYCAADRGRYSYNFWGQGTQVTVSS	high polyreactivity
QVQLVESGGGLVQAGGSLRLSCAASGTFQSYAMGWNRQAPGKERELVAAISRSGASTYYADSVKGRFTISRDNAKNTVYLQMISLKPEDTAVYYFAARKTSKYYYWGQGTQVTVSS	high polyreactivity
QVHLVESGGGLVQAGGSLRLSCAASGIISGGNAMGWYRQAPGKDRELVASINSGGSTNYADSVKGRFTISRDNALNSLYLKMNSLKPDDTAVYYGAGDYIDSTAYDYWGQGTKVTVSS	low polyreactivity
QVQLVESGGGLVQAGGSLRLSCAASGRIFGYYAMGWYRQAPGKERELVAAITGSGGRTYYADSVKGRFTISRDNAKNTVYLQMNSLKPEDTAVYYCARQQYRWERVYGYGYCGQGTQVTVSS	high polyreactivity
QVQLVDSCGGLVQAGGSLRLSCHASGLTFFANAMGWYRQEHGKERELVAAITRRGGSTYYADSVKGRFTNSRDNAKNTVYLQMNSLKPEDTAVYYCAAEPRSVPAQYRSGDYWGQGTQVTVSS	high polyreactivity
QVQLVESGGGLVQAGGSLRLSCAASGSIFFSNAMGWYRQAPGKERELVAAITSTGGSTYYADSVKGRFTISRDTAKNTVYLQLNSLKPEDTAVYYCAAASRRGYYYWGQGTQVTVSS	high polyreactivity
QVQLVESGGGLVQAGGSLRLSCAASGSTFYPYAMGGYRQAPGKERELVAAISSGGSTYYADSVKGRFTISRDNAKNTVYLQMNSLKPADTAVYYCAADFYYAYYWGQGTQVTVSS	low polyreactivity
QVQLVDSGGGLVQAGGSLRLSCAASGRTFWIYAMGWYRPAPGKERELVAAISRGGSTYADSVKGRFTISRDNAKNTVYLQMNSLKPEDTAVYYCAASTPQYQYYYWGQGTQVTVSS	high polyreactivity
QVQLVESGGGLVQAGGRLRLSCAASGRIFYVYAMGGYRQAPGKERELVAAISRGGSTNSADSVKGRFTISRDNAKNTVYLQMNSLKPEDTAVYYCAASSLPHYSYRHSYLYVYWGQCTQVTVSS	low polyreactivity
QVQLVESGGGLVQAGGSLRLSCAASGRILKVYAMGGYRQAPGQERELVAAISVNGGRTYYADSVKGRFTISRDNAKNTVYLQMNSLKPEDTAVYYCAIRLYKPGNVFYSVDQSDYWGQGTQVTVSS	low polyreactivity
QVQLVESGGGLVQAGGSLRLSCDASGNILPSNAMGWYRQAPGKERELVAAITWSVGRTYYADSVKGRFTISRDNAKNTVYLQMNSLKPEDTAVYYCNAQDTPYEGRYDESEYDYWGQGTQVTVSS	low polyreactivity
QVQLVESGGGLVQAGGSLRLSCADSGSTFGYYAMGWYRQAPGKERELVAGISSGGTTKYADSVKGRFTISRDNAKNTVYLQMNSLKPVDTAVYYCAARFRRTRVTYYYWGQGTQVTVSS	high polyreactivity
QVQLVESGGGLVQAGGSNRLSCAASGCIFSRYLMGWYRQAPGIETELVADISGSRGRTYYADSVKGRFTISRDNAKKTVYLQMNSLKPEDTAVYYSNKVWFGYSGVDDYWGQGTQVTVSS	high polyreactivity
QVQLVESGGGLVQAGGSLRLSCAASGIIFYRYAMGWYRQAPGKERELVATIRRSDGSTYYADSVKGRFTISRDNAKNTVYLQMKSLKPVDTAVYYCAARRPYSSGYDYWGQGSQVTVSS	high polyreactivity
QVQLVQSFGGLVQAGGSLRLSCAASGRIFWPYAMGWYRQPPGKERELVAAITGSGSRTYYADSVKGRFTISRDYAKNTVYLHMNSLNREDTAVYYCAATSSTDYDYWGQGTQVTVSS	low polyreactivity
QVQLVETGGGLVQAGGSLRLICAASGSTFQPYAMGWYRQAPGKEREFVATISGSAGSTYYADSVKGRFKISRDNAKNTVYLQMNSLKPEDTAVYYCNADSGWFGYDYWGQGTQVTVSS	low polyreactivity
QVQLVESGGGLVQAGGSLRLSCAASGRIFYANTMGWYRKATGKERELVAAISSGGSTTYADSVKGRFTISRENAKNTVYLQMNSLKPEDPAVYYCATNTWYHYQRMYYWGQGTQVTVSS	high polyreactivity
QVQLVESGGGLVQAGGSLRLSCAASGFIFYYYAMGWYRQAPGKERELVAAINRRGGSTYYADSVKGRFTISRDNAKNTVYLQMNSLKPEDTAVYYCAATYDGTFDYWGQGTQVTVSS	high polyreactivity
